Results on 1 substance are retold here after patent publication KR20160024853A, “당뇨병 치료를 위한 주사형 나노-네트워크 겔” (메사추세츠 인스티튜트 오브 테크놀로지, priority 2013, dated 2016).

A short description of data set [1]: Plasma human insulin in STZ-induced diabetic mice (human insulin ELISA). The following applies: mouse, in vivo.
The test system of data set [2] is STZ-induced diabetic mice (male C57B6). As to the kind of experiment: Blood glucose control in STZ-induced diabetic mice after one subcutaneous injection. In kind it is in vivo, mouse. The following applies: after administration.

In the case of “인슐린 용액: human recombinant insulin solution (zinc salt, Invitrogen)”, the “plasma insulin concentration on the day after administration” value in data set [1] is reported as “급격한 감소”. In addition, the “time when BG rose to the hyperglycemic range” value in data set [2] is on record as “둘째 날”.
